This note sets out measurements from the supplement of paper PMC9170038.

For this data set, the system named is MS2 coat protein. Briefly: apparent KD of MS2 coat protein; designed switch direction (-1 OFF switch, 1 ON switch): -1; higher = weaker reporter binding. The gist of the method: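 On Illumina chips, designed RNA switches with common flanks were made by stalled E. coli RNA polymerase. Titrations with SNAP-549-labelled MS2 coat protein, doubling from 0.7 or 1.5 nM to 3 µM, were done with no input, with 200 uM small-molecule ligand, or with an oligonucleotide input. Apparent KD is the median per design over clusters, from curve fits of normalised cluster fluorescence.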

Where [1] appears, read: Eterna round: R95, input ligand: microRNA oligo, concentration not stated.
Where [2] appears, read: Eterna round: R95, input ligand: FMN 200 uM.
Setting [3] is: Eterna round: R95, input ligand: none.
Where [4] appears, read: input ligand: microRNA oligo, concentration not stated.

“AUCUUGUAAGGAUAUCUUACAAGUGACUUCGGUCACAGUUAAGAGAAGGUACAUGAGGAUCACCCAUGUAUAAC [Ex4-3: 38] (puzzle: Exclusion 4)”: the “apparent KD of MS2 coat protein” value under setting [1] is 23.8 nM.
With “AUGAGACAUGAGGAUCACCCAUGUGAGGAUAUGUAUGGAUGGUGGAAAGAAUGAGAGAACAGAAGGCACGUAGA [JR_Exclu1_Sub062] (puzzle: Exclusion 1)”, the “apparent KD of MS2 coat protein” value under setting [2] is 122 nM, the “apparent KD of MS2 coat protein” value under setting [1] is 109 nM and the “apparent KD of MS2 coat protein” value under setting [3] was 231 nM.
On the same counts, the results for “AUGAGGUUAGGAUAUACAUGAGGAUCACCCAUGUUGAAAGGUUAGAUAGGAGAAGAUAGUAGAAGGAACAAAGA [JR_Exclu3_Sub053] (puzzle: Exclusion 3)” are 31.8 nM, 37.2 nM and 43.1 nM.
Turning to “AUGAGGUUAGGAUAUACAUGAGGAUCACCCAUGUUGGAGAAGGAAGUGUAAGUAGCGAGUAGAAGGAACGGAGC [JR_Exclu3_Sub060] (puzzle: Exclusion 3)”, the “apparent KD of MS2 coat protein” value is 37.5 nM under setting [2], 51.1 nM under setting [1] and 48.4 nM under setting [3].
Take “AUGCCACAUGAGGAUCACCCAUGUGAGGAUAUGGCCUGUUUGGCGUGUGCUGGCUCUGUCAGAAGGCGCGUGGG [salish99_ex1_r4_036] (Eterna round: R97, puzzle: Exclusion 1)”: the “apparent KD of MS2 coat protein” value was 33.9 nM (input ligand: FMN 200 uM) and 25.7 nM (input ligand: none).
Regarding “AUGCCGAGUGUAGGAUAUGGCCCGGAACCACGGCCAGAAGGACAUGAGGAUCACCCAUGUGGCCCGAUAUACACGGUAUCAGAC [Eternabot solution 1] (Eterna round: R96, puzzle: Exclusion NG 1)”, the “apparent KD of MS2 coat protein” value was determined as 44.7 nM (input ligand: FMN 200 uM), 17.7 nM under setting [4] and 24.4 nM (input ligand: none).
On the same counts, the results for “AUGGGUCCUCACGGAGCUACAUGAGGAUCACCCAUGUGUAUUGAGGAUAUCCACUGCCGAGGGCUGGAGAAGGCAGUGUACUGU [Ex NG3 #92] (Eterna round: R96, puzzle: Exclusion NG 3)” are 124 nM, 89.3 nM and 108 nM.
For “AUGGUACAUGAGGAUCACCCAUGUUAGGAUAUCGCGUGACCUAAAACUAAGAGACACACGAGAAGGGACGACAU (puzzle: Exclusion 1)”, under setting [1], the “apparent KD of MS2 coat protein” value stood at 77.3 nM.
For “AUGGUGUCAGGAUAUCUCAAAGCACAGAAUGAGCGGCUACGGGAGAAGGGACAUGAGGAUCACCCAUGUACUCU [EX4 B.29] (Eterna round: R97, puzzle: Exclusion 4)”, the “apparent KD of MS2 coat protein” value reads like this: (input ligand: FMN 200 uM) 19.9 nM; (input ligand: none) 18.6 nM.
The corresponding values for “AUGUCGGCAGGAUAUACAUGAGGAUCACCCAUGUAAAUUUUUCGUUUAACUUGAAUGUGUAGAAGGGCCAUGUA [Ex3 #69] (Eterna round: R97, puzzle: Exclusion 3)” are 29.1 nM and 28.9 nM.
As for “AUGUGGGUAUGAAGGUGUAGAUAGAGCGUACGUUAUGGAACAUGAGGAUCACCCAUGUAGCUUUUUGCUCGUCUUAU [JR_SV3TOV2_Sub034] (puzzle: Sensor v3, turn-off variant 2)”, the “apparent KD of MS2 coat protein” value is, setting by setting: under setting [2], 36.8 nM; under setting [1], 40.9 nM; under setting [3], 40.4 nM.
In the case of “AUGUUGUCAGGAUAUCUUACAUAACAAUCGUUGUUACCAUUGGAGAAGGGACAUGAGGAUCACCCAUGUUAACC [tap-tap-tappy45] (Eterna round: R97, puzzle: Exclusion 4)”, the “apparent KD of MS2 coat protein” value (input ligand: FMN 200 uM) was 23.9 nM and the “apparent KD of MS2 coat protein” value (input ligand: none) stood at 21.5 nM.
Take “AUUAAACAUGUAGGAUAUGCAUAGCAAAGCUAUGCAGAAGGACAUGAGGAUCACCCAUGUAAAAGCGUCUGAGUACAGAUGCAA [Mat - Exclusion NG 1 - Mod of JL - D89] (Eterna round: R96, puzzle: Exclusion NG 1)”: the “apparent KD of MS2 coat protein” value by setting is: (input ligand: FMN 200 uM) 402 nM; under setting [4], 53.2 nM; (input ligand: none) 57 nM.
The corresponding values for “AUUAAAGACCGAGGAUAUCGAGGAAAUACACUGCGAGAAGGCGGGUACUCGGACGAUUCGACAUGAGGAUCACCCAUGUGCACA [Tixequ] (Eterna round: R96, puzzle: Exclusion NG 1)” are 26.7 nM, 18.9 nM and 25.3 nM.
Take “AUUAACUUAGGAUAUACAUGAGGAUCACCCAUGUCCCACCCGUUACCCAUGACCAUAUGUAGAAGGAAGAAGAA [Exy#9] (Eterna round: R97, puzzle: Exclusion 3)”: the “apparent KD of MS2 coat protein” value was 32.2 nM (input ligand: FMN 200 uM) and 39.5 nM (input ligand: none).
On the same counts, the results for “AUUAGUAAUAAGGAUAUCACUAGCCUCGGCUAGUGAGAAGGUAUUACAUGAGGAUCACCCAUGUGAUUAAUUAA [E6/5-A2] (Eterna round: R97, puzzle: Exclusion 6)” are 463 nM and 79.7 nM.
Take “AUUAGUAAUAAGGAUAUCACUAGCUUCGGCUAGUGAGAAGGUAUUACAUGAGGAUCACCCAUGUGAUUAAUUAA [E6/5-A1] (Eterna round: R97, puzzle: Exclusion 6)”: the “apparent KD of MS2 coat protein” value was 446 nM (input ligand: FMN 200 uM) and 75.3 nM (input ligand: none).
As to “AUUAUAAGGAGAGGAUAUCUAAUAAUAUAUAUUAGAGAAGGCUCACAUGAGGAUCACCCAUGUUUUUUUUUUUUUUUUUUUUUU [Default title] (Eterna round: R96, puzzle: Exclusion NG 1)”, the “apparent KD of MS2 coat protein” value by setting is: (input ligand: FMN 200 uM) 89.5 nM; under setting [4], 65 nM; (input ligand: none) 71.7 nM.
As for “AUUAUAUAGAGAGGAUAUAGAAUAUUAUUUUAACAUGAGGAUCACCCAUGUAACCUUAUGUGUAGCUAGAAGGCUCAUUUAUUA [Title] (Eterna round: R96, puzzle: Exclusion NG 2)”, the “apparent KD of MS2 coat protein” value under setting [4] is 33.9 nM.
The same measure, in the same setting: then “AUUAUAUAGUAAGGAUAUAGAUUAUUAUUUUAACAUGAGGAUCACCCAUGUAGCCUUAUGUAUAACUAGAAGGUACAUUUAUUA [Title] (Eterna round: R96, puzzle: Exclusion NG 2)”, with 35.7 nM.
Turning to “AUUCCACAUGAGGAUCACCCAUGUCAGGAUAUGCAUAGUCCUGCCACAUAGGACUAGCGCAGAAGGGAUCGGGC [Eternabot (L2) Solution 20] (Eterna round: R97, puzzle: Exclusion 1)”, the “apparent KD of MS2 coat protein” value reads like this: (input ligand: FMN 200 uM) 53.9 nM; (input ligand: none) 19 nM.
Turning to “AUUGAUAGCACAGGAUAUUGAGAUUUGAAUUGACAAGAAGGGUGUACAUGAGGAUCACCCAUGUAAUGGUUGAGUGGUUGAUUA [JR_ExcNG1_Sub003] (Eterna round: R96, puzzle: Exclusion NG 1)”, the “apparent KD of MS2 coat protein” value is, setting by setting: (input ligand: FMN 200 uM) 953 nM; under setting [4], 829 nM; (input ligand: none) 1140 nM.
Regarding “AUUGAUGUUGAGGAUAUGCUUUUAUUUAUUAUAGCAGAAGGCGAUACAUGAGGAUCACCCAUGUUCAUGGCUUU [JR_E6_Sub097] (puzzle: Exclusion 6)”, under setting [1], the “apparent KD of MS2 coat protein” value is 11 nM.
On to “AUUUACAAGCUAAGAUCCUACAUGAGGAUCACCCAUGUGGUCCGGUGACGUGAGUCACCGGACUUAGCUCGUCUUGG [salish99_S_TOV1_R5_083] (Eterna round: R97, puzzle: Sensor, turn-off variant 1)”, for which the “apparent KD of MS2 coat protein” value is, setting by setting: (input ligand: FMN 200 uM) 54.4 nM; (input ligand: none) 61.4 nM.
For the sequence “AUUUAGAGAGGAUAUAUAAAGUGAAACAUGAGGAUCACCCAUGUAAUUUUAUGGAUGUAAAUAGAAGGCUCAUUUA [Mat - Exclusion 5 - JL mod - D1] (puzzle: Exclusion 5)”, the “apparent KD of MS2 coat protein” value was determined as 23.7 nM under setting [2], 28.9 nM under setting [1] and 30.1 nM under setting [3].
With “AUUUAGCAAGUUAGAUCCUACAUGAGGAUCACCCAUGUUGUUCGUCUUAUUUGAAGACAACACAAAAGUGUUGUCUU [Omei Mir OFFv1 B3] (Eterna round: R97, puzzle: Sensor, turn-off variant 1)”, the “apparent KD of MS2 coat protein” value is, setting by setting: (input ligand: FMN 200 uM) 107 nM; (input ligand: none) 100 nM.
Take “AUUUUAACAUAGGAUAUCGAAUUUAUUAUUUAACGAGAAGGAUGAACAUGAGGAUCACCCAUGUGGUAUCAUGG [JL-ex6-3.02] (puzzle: Exclusion 6)”: the “apparent KD of MS2 coat protein” value under setting [1] is 204 nM.
For the sequence “CAAACCAGAGGAUAUGCGCAUAGAUCAGACUUUGUUUCUUAACAUGAGGAUCACCCAUGUAGAAGGCUGUAAAA [Ex2 #73] (Eterna round: R97, puzzle: Exclusion 2)”, the “apparent KD of MS2 coat protein” value reads like this: (input ligand: FMN 200 uM) 18.4 nM; (input ligand: none) 17.6 nM.
With “CAAAUCUGAGGAUAUCGAUUUUUGUACAUGAGGAUCACCCAUGUCCUUUUUAUUAAAUCCCGAGAAGGCAGUGUAU [JR_E5_Sub096] (puzzle: Exclusion 5)”, the “apparent KD of MS2 coat protein” value under setting [1] was 24.3 nM.
Turning to “CAAAUGGUUUAAGGAUAUUACAUGAGGAUCACCCAUGUUAUCGGGAUGCUUCUCUUAAAAUACGGUAAGAAGGUAGACCUAAUC [Ceveso] (Eterna round: R96, puzzle: Exclusion NG 2)”, the “apparent KD of MS2 coat protein” value was 451 nM (input ligand: FMN 200 uM), 91 nM under setting [4] and 84.9 nM (input ligand: none).
Turning to “CAAUAGAAAGGAUAUACAGUAGGCGUUGUGCUCGAGCACUCACAUGAGGAUCACCCAUGUAGAAGGUUCAGUUA [EX2 C.18] (Eterna round: R97, puzzle: Exclusion 2)”, the “apparent KD of MS2 coat protein” value stood at 27.9 nM (input ligand: FMN 200 uM) and 17.7 nM (input ligand: none).
On the same counts, the results for “CAAUUAAUUAAUUAAUAAUACAUGAGGAUCACCCAUGUAGAUCCUACAUACAAGCUUUGUAGCUCGUCUUAUAAUUA [Stov1/3-A3] (Eterna round: R97, puzzle: Sensor, turn-off variant 1)” are 368 nM and 417 nM.
